Data on one molecule can be found in patent US20250092124A1.

The term IC50 denotes the concentration that inhibits the measured activity by half. A low value points to greater potency in that assay. The term EC50 denotes the concentration giving half of the maximal effect. One may read the Kd as the free concentration of one partner at which half of the binding sites on the other are occupied at equilibrium, for simple one-to-one binding. Broadly, the koff is the first-order rate constant of dissociation. The kon is the second-order rate constant of association. Read a low kon as slow association.

For assay [1], the target named is GDF15-mFC protein (human; mouse) (UniProt Q99988). Kind of assay: competitive ELISA, GFRAL-HIS coated (competitor), GDF15-mFc 0.3 µg/ml pre-incubated with antibody. On the technique in general: In an ELISA, binding on a coated surface is turned into a signal by an enzyme label.
GDF15-mFC protein (human; mouse), sequence (Q99988 197-308): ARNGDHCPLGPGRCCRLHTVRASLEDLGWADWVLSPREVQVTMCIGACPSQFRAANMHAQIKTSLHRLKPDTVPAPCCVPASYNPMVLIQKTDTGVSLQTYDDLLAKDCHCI
Assay [2] concerns the target GDF15-HIS (ACROBiosystems, CAT #: GD5-H5149) (human) (UniProt Q99988). Kind of assay: cell-based or functional assay.
Assay [3] has the same target. Briefly: ELISA, GDF15-HIS coated.
Assay [4] has as its target GDF15-mFC protein (human; mouse) (UniProt Q99988). Kind of assay: blocking ELISA as in Example 4, GFRAL-hIgG1 Fc coated (competitor), GDF15-mFC mixed with antibody.
Assay [5] deals with GDF15-HIS (ACROBiosystems, CAT #: GD5-H5149) (human) (UniProt Q99988).
GDF15-HIS (ACROBiosystems, CAT #: GD5-H5149) (human), sequence (Q99988 197-308 limits assumed): as the sequence (Q99988 197-308) above
The target is the same in assay [6]. Kind of assay: BLI (ForteBio Octet), antibody immobilised, GDF15 200-6.25 nM. Background: Biolayer interferometry detects binding as a change in optical thickness at a sensor tip.

B1: Ponsegromab (antibody, INN chains, looked up, V domains shown)
VH: QVQLVQSGAEVKKPGSSVKVSCKASGYTFSSYNIDWVRQAPGQGLEWMGGINPIFGTAFYNQKFQGRVTITADESTSTAYMELSSLRSEDTAVYYCAREAITTVGAMDHWGQGTLVTVSS
VL: EIVLTQSPATLSLSPGERATLSCRTSQSVHNYLAWYQQKPGQAPRLLIYDASTRADGIPARFSGSGSGTDFTLTISSLEPEDFAVYYCQQFWSWPWTFGQGTKVEIK
For the molecule B1, in assay [1], the IC50 came to 0.504 µg/mL and the OD450.Max was determined as 1.02 OD450. For the same molecule, in assay [2], the Bottom (luciferase activity fold, fitted curve), HEK293 SRE-LUC2-cRET-GFRAL reporter cells amounted to 1.07 and the IC50, luciferase in HEK293 SRE-LUC2-cRET-GFRAL reporter cells stimulated with GDF15-His 5 ng/ml amounted to 0.0321 µg/mL. In assay [3], this molecule yielded an EC50 of 0.096 µg/mL and an OD450.Max of 1.1 OD450. In assay [4], this molecule had an IC50 of 0.504 µg/mL and an OD450.Max of 1.02 OD450. In assay [5], the EC50 (read off the curve) of GDF15-His for luciferase induction with 0.1 µg/ml antibody present was found to be 0.01 µg/mL. In assay [6], this molecule had a Kd below 1 pM, an off-rate (koff) below 1e-07 s⁻¹ and a kon of 711000 M⁻¹ s⁻¹.
